Experiments:
Type in all cases: cell-based
[1] = system: strain Lactococcus lactis which produces lacticin 481; test: Inhibition spectrum test on the lacticin 481 producer
[2] = system: Lactobacillus helveticus (N 2); test: Inactivation by enzymes, agar well test
[3] = system: Gram-negative bacteria; test: Inhibition spectrum, summary for Gram-negative bacteria; conditions: summary of Table V
Excerpt: The inhibition spectrum of the supernatant is thus determined.

[4] = system: Lactobacillus helveticus (N 2); test: Resistance to heat and to pH, agar well test; conditions: pH 4 or 7 combined with elevated temperature
[5] = system: Lactobacillus helveticus (N 2); test: Resistance to heat, agar well test; conditions: 60 min incubation at 100 °C
[6] = system: Lactobacillus helveticus (N 2); test: Resistance to pH, agar well test; conditions: pH 2 to 10

| Substance | growth of the lacticin 481-producing strain in the presence of the bacteriocin [1] | influence of catalase on bactericidal activity ([2]; Tables I and II, two indicator strains) | effect of proteolytic enzymes on bactericidal activity ([2]; all proteolytic enzymes of Tables I and II) | inhibitory effect on the growth of Gram-negative bacteria [3] | bactericidal activity after heat and pH [4] | bactericidal activity after heat [5] | pH dependence of bactericidal activity [6] |
| --- | --- | --- | --- | --- | --- | --- | --- |
| lacticin 481 | immune |  |  |  |  |  |  |
| variacin: bacteriocin from Micrococcus varians strains CNCM I-1586 and CNCM I-1587, amino acid sequence SEQ ID NO:1, 2659 daltons (GSGVIPTISHECHMNSFQFVFTCCS) |  | not found to exert any influence | suppress the bactericidal activity | does not exert any inhibitory effect | not compromised | not compromised | not pH-dependent |
